Data published in patent publication US20160251440A1 (Ablynx, published 2016).
Like-named read-outs stand apart in the source and are kept apart here.

Columns and labels:
[1] = target: T1, human CXCR4 (on cells, viral lipoparticles or membrane extracts) (human, UniProt P61073 1-352); experiment: cell-based or functional assay
[2] = target: T2, CXCR4 and CD4 co-expressed on cells (MOLM-13, THP-1, MT-4, PBMC; Jurkat CD4 low) (human, UniProt P61073 1-352; P01730 26-458); experiment: cell-based or functional assay
[3] = target: T2, CXCR4 and CD4 co-expressed on cells …; experiment: cell-based or functional assay; remark: listed apart in the source
[4] = target: T2, CXCR4 and CD4 co-expressed on cells …; experiment: cell-based or functional assay; remark: listed apart in the source
[5] = target: T2, CXCR4 and CD4 co-expressed on cells …; experiment: FACS, MOLM-13 cells (CXCR4+/CD4+)
[6] = target: T2, CXCR4 and CD4 co-expressed on cells …; experiment: FACS, Jurkat E6-1 cells (CXCR4+/CD4 low)
[7] = target: T2, CXCR4 and CD4 co-expressed on cells …; experiment: flow cytometry on THP-1 cells (CD4 and CXCR4), detection via tag
[8] = target: T1, human CXCR4 (on cells, viral …); experiment: cell-based or functional assay; remark: listed apart in the source
[9] = target: T3, CXCR4 and IL-3Rα (CD123) co-expressed on MOLM-13 / THP-1 cells (human, UniProt P61073 1-352; P26951 19-378); experiment: flow cytometry on THP-1 cells (CXCR4 and IL-3Ra)
T3 construct: whole, on cells; two separate membrane proteins on one cell, not a complex; target of bispecifics on double-positive cells; also called CXCR4+/CD123+ cells

[10] = target: T3, CXCR4 and IL-3Rα (CD123) co-expressed …; experiment: flow cytometry on MOLM-13 cells (IL-3Ra higher than CXCR4)
[11] = target: T4, recombinant IL-3Rα ectodomain (human, UniProt P26951 19-305); experiment: ELISA on recombinant IL-3Ra ectodomain (panel 'IL-3Ra ELISA', lower left)
T4 construct: extracellular domain; also called recombinant IL-3Ra; biotinylated-IL-3Rα ectodomain
T4 sequence (looked up): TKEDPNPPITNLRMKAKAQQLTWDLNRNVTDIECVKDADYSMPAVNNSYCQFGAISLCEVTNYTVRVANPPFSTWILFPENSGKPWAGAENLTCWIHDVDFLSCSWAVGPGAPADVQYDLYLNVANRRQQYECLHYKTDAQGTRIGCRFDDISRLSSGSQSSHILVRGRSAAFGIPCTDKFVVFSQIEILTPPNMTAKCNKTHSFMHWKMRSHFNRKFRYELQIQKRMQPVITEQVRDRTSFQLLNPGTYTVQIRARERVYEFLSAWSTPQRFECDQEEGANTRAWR

[12] = target: T1, human CXCR4 (on cells, viral …); experiment: ELISA on coated hCXCR4 lipoparticles against null lipoparticles at 100, 10, 1 and 0 nM, anti-c-myc detection
[13] = target: T5, human CEACAM5, cell-expressed (human, UniProt P06731 35-685); experiment: FACS, LoVo cells
T5 construct: whole, on cells
T5 sequence (looked up): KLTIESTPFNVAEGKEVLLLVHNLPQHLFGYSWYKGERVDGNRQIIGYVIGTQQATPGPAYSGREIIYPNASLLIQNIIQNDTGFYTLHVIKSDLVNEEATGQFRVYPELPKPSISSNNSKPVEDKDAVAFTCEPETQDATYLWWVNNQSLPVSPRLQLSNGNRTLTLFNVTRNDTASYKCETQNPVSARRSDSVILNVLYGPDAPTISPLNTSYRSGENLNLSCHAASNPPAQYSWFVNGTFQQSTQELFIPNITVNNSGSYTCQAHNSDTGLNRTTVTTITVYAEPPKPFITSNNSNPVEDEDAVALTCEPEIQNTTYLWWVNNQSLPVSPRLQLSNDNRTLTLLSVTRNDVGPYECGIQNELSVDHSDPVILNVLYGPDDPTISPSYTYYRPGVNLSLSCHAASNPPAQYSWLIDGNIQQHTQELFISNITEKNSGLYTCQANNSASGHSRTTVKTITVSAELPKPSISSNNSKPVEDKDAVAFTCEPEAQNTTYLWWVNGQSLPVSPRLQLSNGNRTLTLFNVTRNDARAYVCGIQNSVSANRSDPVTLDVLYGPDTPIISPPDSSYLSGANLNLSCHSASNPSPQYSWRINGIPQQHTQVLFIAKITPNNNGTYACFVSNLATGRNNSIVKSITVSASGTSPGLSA

[14] = target: T6, recombinant human CEACAM5 (human, UniProt P06731 35-685); experiment: ELISA, coated CEACAM5
T6 construct: also called hCEACAM-5; R&D Systems 4128-CM
T6 sequence (looked up): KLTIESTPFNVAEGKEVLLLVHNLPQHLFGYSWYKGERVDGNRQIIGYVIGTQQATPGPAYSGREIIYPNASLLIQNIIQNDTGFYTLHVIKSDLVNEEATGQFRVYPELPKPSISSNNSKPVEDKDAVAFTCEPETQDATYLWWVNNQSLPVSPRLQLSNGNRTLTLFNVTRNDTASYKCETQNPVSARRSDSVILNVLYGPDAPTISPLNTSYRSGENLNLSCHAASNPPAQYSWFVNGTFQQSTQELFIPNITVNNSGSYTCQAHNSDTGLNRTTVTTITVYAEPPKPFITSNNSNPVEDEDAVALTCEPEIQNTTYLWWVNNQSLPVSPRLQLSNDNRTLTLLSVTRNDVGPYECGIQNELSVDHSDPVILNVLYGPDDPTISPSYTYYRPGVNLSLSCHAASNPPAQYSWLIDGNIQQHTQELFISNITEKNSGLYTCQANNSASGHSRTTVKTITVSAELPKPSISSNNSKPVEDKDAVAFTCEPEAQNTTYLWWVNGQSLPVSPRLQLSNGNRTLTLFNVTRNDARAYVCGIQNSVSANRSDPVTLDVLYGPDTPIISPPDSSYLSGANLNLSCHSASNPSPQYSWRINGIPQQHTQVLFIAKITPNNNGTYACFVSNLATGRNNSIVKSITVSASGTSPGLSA

[15] = target: T5, human CEACAM5, cell-expressed; experiment: FACS, LoVo cells; remark: listed apart in the source
[16] = target: T6, recombinant human CEACAM5; experiment: ELISA, coated CEACAM5; remark: listed apart in the source
[17] = target: T6, recombinant human CEACAM5; experiment: SPR Biacore T100, immobilised hCEACAM-5
[18] = target: T7, human EGFR, cell-expressed (human, UniProt P00533 25-1210); experiment: flow cytometry on HER14 cells (EGFR only), anti-Flag detection
T7 construct: whole, on cells; also called ErbB-1

T1 sequence (P61073 whole entry): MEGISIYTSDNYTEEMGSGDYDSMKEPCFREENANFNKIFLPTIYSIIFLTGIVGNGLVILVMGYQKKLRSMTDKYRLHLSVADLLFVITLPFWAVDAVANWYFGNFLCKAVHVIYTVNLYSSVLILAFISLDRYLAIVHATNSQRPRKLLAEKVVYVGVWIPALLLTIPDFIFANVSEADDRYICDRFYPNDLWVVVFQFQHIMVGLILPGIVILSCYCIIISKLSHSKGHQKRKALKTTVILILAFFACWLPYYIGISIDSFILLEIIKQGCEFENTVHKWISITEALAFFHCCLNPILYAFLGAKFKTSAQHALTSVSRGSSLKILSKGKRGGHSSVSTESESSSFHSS
T2 sequence (P61073 whole entry, chain 1 of 2, other chains not shown): as the sequence (P61073 whole entry) above
T3 sequence (P61073 whole entry, one chain of several): as the sequence (P61073 whole entry) above

B1: 03F11-35GS-281F12 (bispecific antibody)
chain: EVQLVESGGGSVQPGGSLTLSCGTSGRTFNVMGWFRQAPGKEREFVAAVRWSSTGIYYTQYADSVKSRFTISRDNAKNTVYLEMNSLKPEDTAVYYCAADTYNSNPARWDGYDFRGQGTQVTVSSGGGGSGGGGSGGGGSGGGGSGGGGSGGGGSGGGGSEVQLVESGGGLVQAGDSLRLSCAASGRAFSRYAMGWFRQAPGKEREFVAAIGWGPSKTNYADSVKGRFTISRDNAKNTVYLQMNTLKPEDTAVYSCAAKFVNTDSTWSRSEMYTYWGQGTQVTVSS
notes: also called CD4#8-35GS-CXCR4#2; CD4#8-CXCR4#2
- Fold increase vs CXCR4#2, Jurkat E6-1 [1]: 0.2 fold
- Fold increase vs CXCR4#2, MOLM-13 [1]: 67 fold
- IC50, SDF-1 chemotaxis, Jurkat E6-1 [1]: 460 nM
- IC50, SDF-1 chemotaxis, MOLM-13 [1]: 1.29 nM
- IC50, HIV-1 BaL (R5), PBMC [2]: 35.9 nM
- IC50, HIV-1 NL4.3 (X4), MT-4 [2]: 11.7 nM
- IC50, HIV-1 NL4.3 (X4), PBMC [2]: 23.7 nM
- IC50, HIV-1 NL4.3 (X4), U87 [2]: > 3330 nM
- IC50, HIV-1 NL4.3 wt, MT-4 [3]: 6 nM
- IC50, NL4.3 2G12 res., MT-4 [3]: 3 nM
- IC50, NL4.3 AMD-3100 res., MT-4 [3]: 14 nM
- IC50, NL4.3 CD4#8 res., MT-4 [3]: 95.7 nM
- IC50, NL4.3 CXCL-12res., MT-4 [3]: 70 nM
- IC50, NL4.3 CXCR4#2 res, MT-4 [3]: > 310 nM
- IC50, HIV-1 HE, MT-4 [4]: 2 nM
- IC50, HIV-1 NL4.3, MT-4 [4]: 6 nM
- IC50, HIV-2 ROD, MT-4 [4]: 8.75 nM
- EC50 [5]: 0.7 nM
- EC50 [6]: 1.1 nM
- EC50 (read off the curve) [7]: ~1 nM

B2: 281F12-35GS-55A01 (bispecific antibody)
chain: EVQLVESGGGLVQAGDSLRLSCAASGRAFSRYAMGWFRQAPGKEREFVAAIGWGPSKTNYADSVKGRFTISRDNAKNTVYLQMNTLKPEDTAVYSCAAKFVNTDSTWSRSEMYTYWGQGTLVTVSSGGGGSGGGGSGGGGSGGGGSGGGGSGGGGSGGGGSEVQLVESGGGSVQAGGSLRLSCTTSGRALNMYVMGWFRQAPGNEREFVAATSSSGGSTSYPDSVKGRFTISRDNAKNTVYLQMNSLKPEDTAAYRCAASPYVSTPTMNILEEYRYWGQGTLVTVSS
notes: also called CXCR4#2-CD123#2; 281F12-55A01
- Fold inc. vs CXCR4#2, Jurkat E6-1 [8]: 1.13 fold
- Fold inc. vs CXCR4#2, MOLM-13 [8]: 10.9 fold
- IC50, CXCL-12 chemotaxis, Jurkat E6-1 [8]: 86 nM
- IC50, CXCL-12 chemotaxis, MOLM-13 [8]: 7.85 nM
- EC50 (read off the curve) [9]: ~10 nM
- EC50 (read off the curve) [10]: ~10 nM
- EC50 (read off the curve) [11]: ~1 nM

B3: 281F12-9GS-03F11 (bispecific antibody)
chain: EVQLVESGGGLVQAGDSLRLSCAASGRAFSRYAMGWFRQAPGKEREFVAAIGWGPSKTNYADSVKGRFTISRDNAKNTVYLQMNTLKPEDTAVYSCAAKFVNTDSTWSRSEMYTYWGQGTQVTVSSGGGSGGGGSEVQLVESGGGSVQPGGSLTLSCGTSGRTFNVMGWFRQAPGKEREFVAAVRWSSTGIYYTQYADSVKSRFTISRDNAKNTVYLEMNSLKPEDTAVYYCAADTYNSNPARWDGYDFRGQGTQVTVSS
notes: also called CXCR4#2-9GS-CD4#8
- IC50, HIV-1 NL4.3 (X4), MT-4 [2]: 0.2 nM
- IC50, HIV-1 NL4.3 (X4), PBMC [2]: 0.03 nM
- IC50, HIV-1 NL4.3 (X4), U87 [2]: 0.53 nM
- binding result [12]: binds

B4: CEA#1-35GS-ctrl (bispecific antibody)
chain: EVQLVESGGGSVQAGGSLRLSCAASGDTYGSYWMGWFRQAPGKEREGVAAINRGGGYTVYADSVKGRFTISRDTAKNTVYLQMNSLRPDDTADYYCAASGVLGGLHEDWFNYWGQGTLVTVSSGGGGSGGGGSGGGGSGGGGSGGGGSGGGGSGGGGSDVQLQASGGGSVQAGGSLRLSCAASGYTIGPYCMGWFRQAPGKEREGVAAINMGGGITYYADSVKGRFTISQDNAKNTVYLLMNSLEPEDTAIYYCAADSTIYASYYECGHGLSTGGYGYDSWGQGTQVTVSS
notes: also called BI#48; T023200048
- EC50 [13]: 0.92 nM
- EC50 [14]: 0.026 nM

B5: CEA#5-35GS-ctrl (bispecific antibody)
chain: EVQLVESGGGSVQAGGSLRLSCAASGDTYGSYWMGWFRQAPGQEREAVAAINRGGGYTVYADSVKGRFTISRDNAKNTLYLQMNSLRPDDTADYYCAASGVLGGLHEDWFNYWGQGTLVTVSSGGGGSGGGGSGGGGSGGGGSGGGGSGGGGSGGGGSDVQLQASGGGSVQAGGSLRLSCAASGYTIGPYCMGWFRQAPGKEREGVAAINMGGGITYYADSVKGRFTISQDNAKNTVYLLMNSLEPEDTAIYYCAADSTIYASYYECGHGLSTGGYGYDSWGQGTQVTVSS
notes: also called BI#51; T023200051
- EC50 [13]: 2.6 nM
- EC50 [14]: 0.11 nM

B6: CEA#5 (VHH)
VHH: EVQLVESGGGSVQAGGSLRLSCAASGDTYGSYWMGWFRQAPGQEREAVAAINRGGGYTVYADSVKGRFTISRDNAKNTLYLQMNSLRPDDTADYYCAASGVLGGLHEDWFNYWGQGTLVTVSS
notes: also called T023200005; NbCEA5(K43Q, G47A, T73N, V78L)
- EC50 [15]: 2.4 nM
- EC50 [16]: 0.11 nM
- Kd [17]: 3.1 nM
- koff [17]: 0.0033 s⁻¹
- kon [17]: 1.1e+06 M⁻¹ s⁻¹
- binding result [18]: no binding (tested: about 1E-7 M)

B7: CEA#1 (VHH)
VHH: EVQLVESGGGSVQAGGSLRLSCAASGDTYGSYWMGWFRQAPGKEREGVAAINRGGGYTVYADSVKGRFTISRDTAKNTVYLQMNSLRPDDTADYYCAASGVLGGLHEDWFNYWGQGTLVTVSS
notes: also called NbCEA5
- EC50 [15]: 1 nM
- EC50 [16]: 0.026 nM
- Kd [17]: 0.51 nM
- koff [17]: 0.00051 s⁻¹
- kon [17]: 990000 M⁻¹ s⁻¹
- binding result [18]: no binding (tested: about 1E-7 M)
